Among the data in PMC2896269 are Kd values, retold here.

pKd: −log10 of the molar value. “And” between values parts separate entries of the source, which are not always exact repeats. Equal values may be shown once.

One assay addresses LRRTM2 (UniProt O43300). The conditions noted are these: cited from earlier work.
The next assay concerns the target HA-LRRTM2 (UniProt Q8BGA3). Kind of assay: immunostaining of cells or tissue.

Sequence of LRRTM2 (O43300 34-422): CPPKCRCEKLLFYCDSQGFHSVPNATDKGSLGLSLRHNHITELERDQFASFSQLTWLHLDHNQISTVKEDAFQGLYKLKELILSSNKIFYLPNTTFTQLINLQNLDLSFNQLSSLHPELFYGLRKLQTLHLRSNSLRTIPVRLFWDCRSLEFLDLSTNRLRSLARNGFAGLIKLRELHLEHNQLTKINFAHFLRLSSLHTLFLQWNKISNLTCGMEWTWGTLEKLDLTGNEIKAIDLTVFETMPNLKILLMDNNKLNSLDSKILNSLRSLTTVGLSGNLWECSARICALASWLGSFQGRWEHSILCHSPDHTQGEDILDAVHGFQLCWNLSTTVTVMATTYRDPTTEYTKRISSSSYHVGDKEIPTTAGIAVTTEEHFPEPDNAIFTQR
Sequence of Neurexin-1beta(-S4) (P58400 91-289): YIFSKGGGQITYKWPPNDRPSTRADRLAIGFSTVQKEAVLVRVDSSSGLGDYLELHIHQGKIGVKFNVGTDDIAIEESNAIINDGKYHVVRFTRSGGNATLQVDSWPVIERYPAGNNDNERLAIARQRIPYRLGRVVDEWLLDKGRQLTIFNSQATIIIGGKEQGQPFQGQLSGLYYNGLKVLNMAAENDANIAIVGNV
Sequence of HA-LRRTM2 (Q8BGA3 34-515): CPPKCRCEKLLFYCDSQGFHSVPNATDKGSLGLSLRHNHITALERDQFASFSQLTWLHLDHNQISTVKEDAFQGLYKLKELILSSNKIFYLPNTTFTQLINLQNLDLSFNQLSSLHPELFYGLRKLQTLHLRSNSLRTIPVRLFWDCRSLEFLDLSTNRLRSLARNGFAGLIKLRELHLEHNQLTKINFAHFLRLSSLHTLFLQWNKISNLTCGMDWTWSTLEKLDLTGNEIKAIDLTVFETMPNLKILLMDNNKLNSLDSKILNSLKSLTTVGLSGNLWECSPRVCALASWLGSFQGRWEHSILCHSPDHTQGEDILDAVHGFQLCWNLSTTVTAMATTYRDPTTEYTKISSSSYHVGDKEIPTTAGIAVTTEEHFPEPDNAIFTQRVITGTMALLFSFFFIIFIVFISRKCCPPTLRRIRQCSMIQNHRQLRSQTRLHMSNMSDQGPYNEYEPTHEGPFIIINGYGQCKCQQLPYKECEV

Take “Neurexin-1beta(-S4) (from UniProt P58400)”: in the assay with LRRTM2, the pKd is 8.15 and 8.24. In the assay with HA-LRRTM2, Nrx1β(−S4)-Fc (Fc fusion) gave a negative logarithm of the Kd (pKd) of 7.70.

As a reminder, the pKd is the negative decadic logarithm of the Kd, by convention in mol/L.
